From US20170151343A1 (AbbVie / Abbott, published 2017)
Residue numbers refer to the chain shown, from its start. In names and notes the source's numbering stands.

T1: human LRRC15 (leucine-rich repeat-containing protein 15), expressed on cells (human, UniProt Q8TF66 22-581)
T1 construct: Cells: U118MG (endogenous), HCT116-huLRRC15, 3T12-huLRRC15 transfectants, TGFbeta-treated A549, human BM-MSC; also called huLRRC15; endogenous huLRRC15
T1 sequence: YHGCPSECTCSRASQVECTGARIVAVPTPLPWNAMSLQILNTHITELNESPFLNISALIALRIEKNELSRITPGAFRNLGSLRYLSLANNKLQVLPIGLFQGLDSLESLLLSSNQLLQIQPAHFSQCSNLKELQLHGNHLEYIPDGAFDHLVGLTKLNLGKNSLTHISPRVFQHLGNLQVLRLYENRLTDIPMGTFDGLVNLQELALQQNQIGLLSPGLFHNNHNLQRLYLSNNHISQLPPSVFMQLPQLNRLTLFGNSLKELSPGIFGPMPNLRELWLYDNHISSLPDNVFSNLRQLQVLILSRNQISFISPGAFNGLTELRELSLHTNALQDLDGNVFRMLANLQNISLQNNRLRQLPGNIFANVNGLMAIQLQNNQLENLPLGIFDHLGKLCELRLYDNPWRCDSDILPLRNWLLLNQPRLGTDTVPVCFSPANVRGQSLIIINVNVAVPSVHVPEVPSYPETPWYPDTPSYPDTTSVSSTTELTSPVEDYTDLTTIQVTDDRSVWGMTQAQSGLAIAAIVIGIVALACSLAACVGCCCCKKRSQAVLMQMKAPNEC

T2: huLRRC15-Fc fusion protein (huLRRC15 ECD residues 22 to 526 of SEQ ID NO:3 fused to Fc) (human, UniProt Q8TF66 22-526)
T2 construct: Coated on the ELISA plate at 2 ug/mL; also called huLRRC15-ECD-Fc; huLRRC15 fusion ECD protein
T2 sequence: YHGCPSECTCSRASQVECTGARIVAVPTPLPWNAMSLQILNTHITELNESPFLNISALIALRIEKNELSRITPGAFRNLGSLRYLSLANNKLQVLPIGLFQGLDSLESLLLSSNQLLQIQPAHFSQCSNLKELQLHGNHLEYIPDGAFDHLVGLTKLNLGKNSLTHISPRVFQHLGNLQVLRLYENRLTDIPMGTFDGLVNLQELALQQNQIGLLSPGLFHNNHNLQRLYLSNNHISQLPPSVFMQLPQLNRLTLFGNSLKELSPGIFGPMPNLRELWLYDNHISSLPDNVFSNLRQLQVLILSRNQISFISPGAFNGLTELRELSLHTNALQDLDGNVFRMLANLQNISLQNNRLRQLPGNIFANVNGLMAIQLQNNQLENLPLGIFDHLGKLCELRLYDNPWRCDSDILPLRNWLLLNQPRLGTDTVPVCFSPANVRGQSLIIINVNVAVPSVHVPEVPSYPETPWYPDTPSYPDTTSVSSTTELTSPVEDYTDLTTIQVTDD

B1: muAD210.40.9 (antibody, V domains shown)
VH: QVQLQQSGAELVRPGTSVKISCKASGYDFTNYWLGWVKQRPGHGLEWIGDIYPGGGNTYYNEKLKGKATLTADKSSSTAYIHLISLTSEDSSVYFCARWGDKKGNYFAYWGQGTLVTVSA
VL: QIVLTQSPAIMSASLGERVTMTCTASSSVYSSYLHWYQQKPGSSPKLWIYSTSNLASGVPGRFSGSGSGTSYSLTISSMEAEDAATYYCHQYHRSPTFGGGTKLEIK
notes: Murine antibody; Compared with a muIgG2a isotype control
B2: muAD209.9.1 (antibody, V domains shown)
VH: QIQLVQSGPELKKPGETVKISCKASGFAITNFGMNWVKQAPGKGLKWMGWINLYTGEPTFADDFKGRFAFSLETSASTAYLQINNLKNEDTVIYFCARKGETYYRYDGFAYWGQGTLVTVSA
VL: DIVMTQAAPSVPVTPGESVSISCRSSKSLLHSNGNTHLYWFLQRPGQSPQLLIYRMSNLASGVPDRFSGSGSGTAFTLRISRVEAEDVGVYYCMQLLEYPYTFGGGTKLEIE
notes: as for B1
B3: huAD208.12.1 (antibody, V domains shown)
VH: EVQLVQSGAEVKKPGSSVKVSCKASGYTFTNYWMHWVKQAPGQGLEWIGMIHPNSGSTKHNEKFRGKATLTVDESTTTAYMELSSLRSEDTAVYYCARSDFGNYRWYFDVWGQGTTVTVSS
VL: EIVLTQSPATLSLSPGERATLSCRASQSSSNNLHWYQQKPGQAPRVLIKYVSQSISGIPARFSGSGSGTDFTLTISSLEPEDFAVYFCQQSNSWPFTFGQGTKLEIK
notes: Humanized full-length antibody
B4: hu139.10 (antibody, V domains shown)
VH: EVQLVESGGGLVQPGGSLRLSCAVSGFSLTSYGVHWVRQATGKGLEWLGVIWAGGSTNYNSALMSRLTISKENAKSSVYLQMNSLRAGDTAMYYCATHMITEDYYGMDYWGQGTTVTVSS
VL: DIVMTQSPDSLAVSLGERATINCKSSQSLLNSRTRKNYLAWYQQKPGQSPKLLIYWASTRESGVPDRFSGSGSGTDFTLTISSLQAEDVAVYYCKQSYNLPTFGGGTKVEIK
notes: Humanized full-length antibody; Compared with a huIgG1 isotype control
B5: huAD208.4.1 (antibody, V domains shown)
VH: EVQLVQSGAEVKKPGSSVKVSCKASGFTFTDYYIHWVKQAPGQGLEWIGLVYPYIGGTNYNQKFKGKATLTVDTSTTTAYMEMSSLRSEDTAVYYCARGDNKYDAMDYWGQGTTVTVSS
VL: DIVLTQSPDSLAVSLGERATINCRASQSVSTSSYSYMHWYQQKPGQPPKLLIKYASSLESGVPDRFSGSGSGTDFTLTISSLQAEDVAVYYCEQSWEIRTFGGGTKVEIK
notes: Humanized full-length antibody, compared with a huIgG1 isotype control
B6: huAD208.14.1 (antibody, V domains shown)
VH: B5 VH with T58S, N59S, K63Q, T77S, M83L, K102N
VL: B5 VL with N22S, S33T, S35N, I52V, S57N, E93H, Q94H, S95T
notes: as for B4
B7: huM25-mcMMAF-E2 (antibody, human IgG1, kappa)
heavy: not shown
light: DIQMTQSPSSLSASVGDRVTITCRASQDISNYLNWYQQKPGGAVKFLIYYTSRLHSGVPSRFSGSGSGTDYTLTISSLQPEDFATYFCQQGEALPWTFGGGTKVEIKRTVAAPSVFIFPPSDEQLKSGTASVVCLLNNFYPREAKVQWKVDNALQSGNSQESVTEQDSKDSTYSLSSTLTLSKADYEKHKVYACEVTHQGLSSPVTKSFNRGEC
modifications: mcMMAF (maleimidocaproyl monomethyl auristatin F) on cysteines of reduced interchain disulfides, two drugs per antibody (E2); which chain carries them is not stated
B8: huM25 (antibody, human IgG1, kappa)
heavy: not shown
light: B7 light
notes: Humanized IgG1 kappa; also called huM25-AF647
B9: huM25-S239C-PBD-E2 (antibody, human IgG1, kappa)
heavy: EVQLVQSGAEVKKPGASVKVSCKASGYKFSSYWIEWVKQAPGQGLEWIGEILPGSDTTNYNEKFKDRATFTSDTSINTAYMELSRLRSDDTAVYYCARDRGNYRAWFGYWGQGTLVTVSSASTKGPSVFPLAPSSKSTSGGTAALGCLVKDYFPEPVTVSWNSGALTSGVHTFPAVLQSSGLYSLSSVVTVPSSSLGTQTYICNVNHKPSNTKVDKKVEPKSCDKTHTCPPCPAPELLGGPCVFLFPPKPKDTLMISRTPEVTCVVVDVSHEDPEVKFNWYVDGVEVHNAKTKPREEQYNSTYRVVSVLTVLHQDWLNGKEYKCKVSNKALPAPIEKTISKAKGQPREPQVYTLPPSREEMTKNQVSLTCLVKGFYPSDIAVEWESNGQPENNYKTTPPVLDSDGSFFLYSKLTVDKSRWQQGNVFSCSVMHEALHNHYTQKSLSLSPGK
light: B7 light
modifications: vaPBD (Val-Ala pyrrolobenzodiazepine dimer synthon) on the engineered cysteine S239C, DAR2
B10: huM25-vcMMAE-E2 (antibody, human IgG1, kappa)
heavy: not shown
light: B7 light
modifications: vcMMAE (maleimidocaproyl-Val-Cit-PABA-monomethyl auristatin E) on cysteines of reduced interchain disulfides, two drugs per antibody (E2); which chain carries them is not stated

Tests used:
[1] = target: T1, human LRRC15 (leucine-rich …); assay: flow cytometry on U118MG cells
Source text: Isotype control antibodies (mouse or human) were used as appropriate.

[2] = target: T2, huLRRC15-Fc fusion protein (huLRRC15 …); assay: ELISA on coated huLRRC15-ECD-Fc
Protocol: 96-well Immulon 4HBX plates (Thermo, cat. #3855) were coated with 100 μL/well of this huLRRC15 fusion ECD protein at 2 μg/mL in carbonate-bicarbonate buffer (Thermo, cat.#28382) pH 9.4 and allowed to bind overnight at 4° C. Plates were washed three times with PBST and then incubated with various concentrations of antibodies in PBST+0.3% BSA at room temperature for one hour. […] Plates were washed three times in PBST and 100 μL of TMB (Surmodics BioFx cat.# TMBW-1000-01) was added to each well and incubated at RT until color developed (approximately 10 minutes). Reactions were stopped by the addition of 650 nm Stop Reagent for TMB (Surmodics BioFx, cat.# BSTP-0100-01), and optical density (OD) was read at 650 nm (Molecular Devices Versamax PLUS).

[3] = target: T1, human LRRC15 (leucine-rich …); assay: cell-based or functional assay
[4] = target: T1, human LRRC15 (leucine-rich …); assay: flow cytometry competition on U118MG cells; unlabeled antibody titrated against muM25-AF488 at 1 ug/ml, GeoMean normalized to muM25-AF488 alone

Binder | EC50 [1] [nM] | EC50 [2] [nM] | further results
B1 | 0.08 |  | 
B2 | 0.787 | 0.14 | 
B3 |  |  | binding result [1]: binds
B4 | 0.28 | 0.11 | 
B5 | 0.29 | 0.25 | 
B6 | 5.25 | 0.8 | 
B7 |  |  | in vitro killing of HCT116-huLRRC15 cells, EC50 [3]: 0.028 nM
B8 | 0.498 | 0.26 | IC50 (read off the curve) [4]: ~0.4 µg/mL
B9 |  |  | in vitro killing of A549-EMT transformed cells treated with TGFbeta, EC50 [3]: 0.01 nM
B10 |  |  | in vitro killing of HCT116-huLRRC15 cells, EC50 [3]: 0.069 nM
